The target of the series is T1, Crp (Mycobacterium smegmatis mc2155) (UniProt A0R5H1).
T1 sequence: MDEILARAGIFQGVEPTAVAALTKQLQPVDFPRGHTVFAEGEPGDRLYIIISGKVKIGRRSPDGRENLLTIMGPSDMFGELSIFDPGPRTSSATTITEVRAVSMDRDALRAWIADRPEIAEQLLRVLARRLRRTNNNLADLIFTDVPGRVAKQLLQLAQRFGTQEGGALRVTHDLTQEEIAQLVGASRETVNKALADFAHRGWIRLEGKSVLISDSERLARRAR
The experiment in a line: EMSA. As to conditions: Invitrogen EMSA kit binding buffer, 100 fmol (9.3 ng) DNA, 100 uM cAMP, 20 min at room temperature; 8% native PAGE in 0.5x TBE pH 8.3 at 4 C, SYBR green stain.

For the sequence “GGCAGACCGCATCCGCGGCGCGTTCGGTCGCCGCGTCCCGCGCGCGGGAGATCCGTGCGTTTCGGGATGTGATGCCCGTCGCACGACGTGAGCGGCGGTGTGGAGAATCACGGCTCAGCAAAGTTGCATTTGTAAGAGGGCGCGACCAGA (double strand) [ahpC 150-bp wild-type IR1]”, the binding entry was “binds”.

Source of the values: publication PMC4218801.
